The target of this assay is BTN3A expressed at the cell surface (human), O00481. Kind of assay: cell-based or functional assay.
Chain of BTN3A expressed at the cell surface (human), O00481 (O00481 30-513): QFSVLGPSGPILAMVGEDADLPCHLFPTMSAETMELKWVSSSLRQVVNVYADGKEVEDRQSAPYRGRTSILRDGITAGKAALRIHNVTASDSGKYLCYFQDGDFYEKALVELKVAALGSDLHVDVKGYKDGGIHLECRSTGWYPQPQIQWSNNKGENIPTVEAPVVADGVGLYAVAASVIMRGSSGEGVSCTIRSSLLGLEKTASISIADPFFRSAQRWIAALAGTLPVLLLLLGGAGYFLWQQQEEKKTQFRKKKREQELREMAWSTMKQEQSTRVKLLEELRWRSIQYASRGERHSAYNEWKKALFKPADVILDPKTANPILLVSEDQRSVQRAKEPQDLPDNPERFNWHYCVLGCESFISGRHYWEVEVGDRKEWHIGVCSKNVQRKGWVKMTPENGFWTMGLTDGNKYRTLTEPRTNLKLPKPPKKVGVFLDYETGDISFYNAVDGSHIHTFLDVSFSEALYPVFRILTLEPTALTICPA

B1: bsAb069 (bispecific antibody, not shown: small tags and cut ends; a dimerising Fc or GST)
heavy 1: EVQLVESGGGLVQPGGSLRLSCAASGFTFSRYWMSWVRQAPGKGLEWVANIKQDGSEKYYVDSVKGRFTISRDNAKNSLYLQMNSLRAEDTAVYYCAREGGWFGELAFDYWGQGTLVTVSS
heavy 2: DIQMTQSPSSLSASVGDRVTITCHASQNINVWLSWYQQKPGKAPKLLIYKASNLHTGVPSRFTGSGSGTDFTFTISSLQPEDIATYYCQQGQTYPYTFGQGTKLEIKGGGGSGGGGSGGGGSGGGGSQVQLVQSGAEVKKPGASVKLSCKASGYIFTRYYMYWVKQRPGQGLEWIGEINPNNGGTKFNEKFKNRATLTVDKSISTAYMELSRLRSDDTAVYYCSREDDYDGTPFAMDYWGQGTLVTVSSGGGGSGGGGSGGGGSGGGGS
light: EIVLTQSPGTLSLSPGERATLSCRASQRVSSSYLAWYQQKPGQAPRLLIYDASSRATGIPDRFSGSGSGTDFTLTISRLEPEDFAVYYCQQYGSLPWTFGQGTKVEIKRTVAAPSVFIFPPSDEQLKSGTASVVCLLNNFYPREAKVQWKVDNALQSGNSQESVTEQDSKDSTYSLSSTLTLSKADYEKHKVYACEVTHQGLSSPVTKSFNRGECGGGGSGGGGSGGGGSGGGGSQVQLVQSGAEVKKPGASVKLSCKASGYIFTRYYMYWVKQRPGQGLEWIGEINPNNGGTKFNEKFKNRATLTVDKSISTAYMELSRLRSDDTAVYYCSREDDYDGTPFAMDYWGQGTLVTVSSGGGGSGGGGSGGGGSGGGGSDIQMTQSPSSLSASVGDRVTITCHASQNINVWLSWYQQKPGKAPKLLIYKASNLHTGVPSRFTGSGSGTDFTFTISSLQPEDIATYYCQQGQTYPYTFGQGTKLEIK
In the case of B1, the Jurkat-Vy9Vo2 TCR MOP activation at 0.5 nM (fold-change to medium) came to 2.4 and the Jurkat-Vy9Vo2 TCR MOP activation at 5 nM (fold-change to medium) was determined as 3.8.

B2: bsAb070 (bispecific antibody, not shown: small tags and cut ends; a dimerising Fc or GST)
heavy 1: B1 heavy 1
heavy 2: QVQLVQSGAEVKKPGASVKLSCKASGYIFTRYYMYWVKQRPGQGLEWIGEINPNNGGTKFNEKFKNRATLTVDKSISTAYMELSRLRSDDTAVYYCSREDDYDGTPFAMDYWGQGTLVTVSSGGGGSGGGGSGGGGSGGGGSDIQMTQSPSSLSASVGDRVTITCHASQNINVWLSWYQQKPGKAPKLLIYKASNLHTGVPSRFTGSGSGTDFTFTISSLQPEDIATYYCQQGQTYPYTFGQGTKLEIKGGGGSGGGGSGGGGSGGGGS
light: EIVLTQSPGTLSLSPGERATLSCRASQRVSSSYLAWYQQKPGQAPRLLIYDASSRATGIPDRFSGSGSGTDFTLTISRLEPEDFAVYYCQQYGSLPWTFGQGTKVEIKRTVAAPSVFIFPPSDEQLKSGTASVVCLLNNFYPREAKVQWKVDNALQSGNSQESVTEQDSKDSTYSLSSTLTLSKADYEKHKVYACEVTHQGLSSPVTKSFNRGECGGGGSGGGGSGGGGSGGGGSDIQMTQSPSSLSASVGDRVTITCHASQNINVWLSWYQQKPGKAPKLLIYKASNLHTGVPSRFTGSGSGTDFTFTISSLQPEDIATYYCQQGQTYPYTFGQGTKLEIKGGGGSGGGGSGGGGSGGGGSQVQLVQSGAEVKKPGASVKLSCKASGYIFTRYYMYWVKQRPGQGLEWIGEINPNNGGTKFNEKFKNRATLTVDKSISTAYMELSRLRSDDTAVYYCSREDDYDGTPFAMDYWGQGTLVTVSS
The molecule B2 displayed a Jurkat-Vy9Vo2 TCR MOP activation at 0.5 nM (fold-change to medium) of 1.5 and a Jurkat-Vy9Vo2 TCR MOP activation at 5 nM (fold-change to medium) of 1.3.

B3: bsAb024 (bispecific antibody)
heavy: QVQLVQSGAEVKKPGASVKLSCKASGYIFTRYYMYWVKQRPGQGLEWIGEINPNNGGTKFNEKFKNRATLTVDKSISTAYMELSRLRSDDTAVYYCSREDDYDGTPFAMDYWGQGTLVTVSSGGGGSGGGGSGGGGSGGGGSDIQMTQSPSSLSASVGDRVTITCHASQNINVWLSWYQQKPGKAPKLLIYKASNLHTGVPSRFTGSGSGTDFTFTISSLQPEDIATYYCQQGQTYPYTFGQGTKLEIKGGGGSGGGGSGGGGSGGGGSEVQLVESGGGLVQPGGSLRLSCAASGFTFSRYWMSWVRQAPGKGLEWVANIKQDGSEKYYVDSVKGRFTISRDNAKNSLYLQMNSLRAEDTAVYYCAREGGWFGELAFDYWGQGTLVTVSSASTKGPSVFPLAPSSKSTSGGTAALGCLVKDYFPEPVTVSWNSGALTSGVHTFPAVLQSSGLYSLSSVVTVPSSSLGTQTYICNVNHKPSNTKVDKRVEPKSCDKTHTCPPCPAPEFEGGPSVFLFPPKPKDTLMISRTPEVTCVVVDVSHEDPEVKFNWYVDGVEVHNAKTKPREEQYNSTYRVVSVLTVLHQDWLNGKEYKCKVSNKALPASIEKTISKAKGQPREPQVYTLPPSREEMTKNQVSLTCLVKGFYPSDIAVEWESNGQPENNYKTTPPVLDSDGSFFLYSKLTVDKSRWQQGNVFSCSVMHEALHNHYTQKSLSLSPG
light: EIVLTQSPGTLSLSPGERATLSCRASQRVSSSYLAWYQQKPGQAPRLLIYDASSRATGIPDRFSGSGSGTDFTLTISRLEPEDFAVYYCQQYGSLPWTFGQGTKVEIKRTVAAPSVFIFPPSDEQLKSGTASVVCLLNNFYPREAKVQWKVDNALQSGNSQESVTEQDSKDSTYSLSSTLTLSKADYEKHKVYACEVTHQGLSSPVTKSFNRGEC
B3 displayed a Jurkat-Vy9Vo2 TCR MOP activation at 0.5 nM (fold-change to medium) of 1 and a Jurkat-Vy9Vo2 TCR MOP activation at 5 nM (fold-change to medium) of 1.

B4: bsAb054 (bispecific antibody, not shown: small tags and cut ends)
heavy (part 1 of 2): B1 heavy 1
heavy (part 2 of 2): GGGGSGGGGSGGGGSGGGGSQVQLVQSGAEVKKPGASVKLSCKASGYIFTRYYMYWVKQRPGQGLEWIGEINPNNGGTKFNEKFKNRATLTVDKSISTAYMELSRLRSDDTAVYYCSREDDYDGTPFAMDYWGQGTLVTVSSGGGGSGGGGSGGGGSGGGGSDIQMTQSPSSLSASVGDRVTITCHASQNINVWLSWYQQKPGKAPKLLIYKASNLHTGVPSRFTGSGSGTDFTFTISSLQPEDIATYYCQQGQTYPYTFGQGTKLEIK
heavy: B1 heavy 1
light: B3 light
Take B4: the Jurkat-Vy9Vo2 TCR MOP activation at 0.5 nM (fold-change to medium) was determined as 2.8 and the Jurkat-Vy9Vo2 TCR MOP activation at 5 nM (fold-change to medium) came out at 1.

B5: bsAb036 (bispecific antibody, not shown: small tags and cut ends; a dimerising Fc or GST)
heavy (part 1 of 2): B1 heavy 1
heavy (part 2 of 2): B4 heavy (part 2 of 2)
heavy: B4 heavy (part 2 of 2)
light: B3 light
In turn, B5 came in with a Jurkat-Vy9Vo2 TCR MOP activation at 0.5 nM (fold-change to medium) of 0.9 and a Jurkat-Vy9Vo2 TCR MOP activation at 5 nM (fold-change to medium) of 0.9.

B6: bsAb041 (bispecific antibody, not shown: small tags and cut ends; a dimerising Fc or GST)
heavy (part 1 of 2): B1 heavy 1
heavy (part 2 of 2): GGGGSGGGGSGGGGSGGGGSDIQMTQSPSSLSASVGDRVTITCHASQNINVWLSWYQQKPGKAPKLLIYKASNLHTGVPSRFTGSGSGTDFTFTISSLQPEDIATYYCQQGQTYPYTFGQGTKLEIKGGGGSGGGGSGGGGSGGGGSQVQLVQSGAEVKKPGASVKLSCKASGYIFTRYYMYWVKQRPGQGLEWIGEINPNNGGTKFNEKFKNRATLTVDKSISTAYMELSRLRSDDTAVYYCSREDDYDGTPFAMDYWGQGTLVTVSS
heavy: B6 heavy (part 2 of 2)
light: B3 light
In turn, B6 yielded a Jurkat-Vy9Vo2 TCR MOP activation at 0.5 nM (fold-change to medium) of 0.9 and a Jurkat-Vy9Vo2 TCR MOP activation at 5 nM (fold-change to medium) of 1.

B7: bsAb010 (bispecific antibody)
heavy: QVQLVQSGAEVKKPGASVKLSCKASGYIFTRYYMYWVKQRPGQGLEWIGEINPNNGGTKFNEKFKNRATLTVDKSISTAYMELSRLRSDDTAVYYCSREDDYDGTPFAMDYWGQGTLVTVSSASTKGPSVFPLAPSSKSTSGGTAALGCLVKDYFPEPVTVSWNSGALTSGVHTFPAVLQSSGLYSLSSVVTVPSSSLGTQTYICNVNHKPSNTKVDKRVEPKSCDKTHTCPPCPAPEFEGGPSVFLFPPKPKDTLMISRTPEVTCVVVDVSHEDPEVKFNWYVDGVEVHNAKTKPREEQYNSTYRVVSVLTVLHQDWLNGKEYKCKVSNKALPASIEKTISKAKGQPREPQVYTLPPSREEMTKNQVSLTCLVKGFYPSDIAVEWESNGQPENNYKTTPPVLDSDGSFFLYSKLTVDKSRWQQGNVFSCSVMHEALHNHYTQKSLSLSPG
light: not shown
B7: the Jurkat-Vy9Vo2 TCR MOP activation at 0.5 nM (fold-change to medium) is 5.3 and the Jurkat-Vy9Vo2 TCR MOP activation at 5 nM (fold-change to medium) was found to be 4.8.

B8: bsAb014 (bispecific antibody)
heavy: B7 heavy
light: not shown
B8 showed a Jurkat-Vy9Vo2 TCR MOP activation at 0.5 nM (fold-change to medium) of 6.4 and a Jurkat-Vy9Vo2 TCR MOP activation at 5 nM (fold-change to medium) of 4.6.

B9: ICT01 (antibody, V domains shown)
VH: QVQLVQSGAEVKKPGASVKLSCKASGYIFTRYYMYWVKQRPGQGLEWIGEINPNNGGTKFNEKFKNRATLTVDKSISTAYMELSRLRSDDTAVYYCSREDDYDGTPFAMDYWGQGTLVTVSS
VL: DIQMTQSPSSLSASVGDRVTITCHASQNINVWLSWYQQKPGKAPKLLIYKASNLHTGVPSRFTGSGSGTDFTFTISSLQPEDIATYYCQQGQTYPYTFGQGTKLEIK
For the molecule B9, the Jurkat-Vy9Vo2 TCR MOP activation at 0.5 nM (fold-change to medium) was 12.5; the Jurkat-Vy9Vo2 TCR MOP activation at 5 nM (fold-change to medium) was found to be 11.7; the dose at which Jurkat-Vγ9Vδ2 TCR MOP activation was evident amounted to 0.05 nM; the increase in CD107ab expression on Vγ9Vδ2 T cells co-cultured with SKOV3 cells, 0.1 nM came out at 1.9 fold.

The values above are taken from patent US20260265379A1.
